Measurements as given in patent US20110165161A1, “ANTI-EPCAM ANTIBODIES THAT INDUCE APOPTOSIS OF CANCER CELLS AND METHODS USING SAME” (priority 2009, published 2011).
Marks after values point to notes of the source that are not given here.

Tests used:
[1] = system: Pharynx cancer FaDu cells; test: Antibody cytotoxicity assay (Annexin V + PI), FaDu; assay type: cell-based; conditions: 1, 3 and 10 μg/ml, overnight
Protocol: (§1) After a 17-20 hr incubation at 37° C., cells were stained with 0.3 μl of FITC-conjugated Annexin V (Strong Biotech Corp. Cat. No. AVK250) in 50 μl Annexin V binding buffer (Strong Biotech Corp. Cat. No. AVK250) at RT for 20 min. After wash, the cells were then stained with 0.3 μl of propidium iodide in 200 μl Annexin V binding buffer. Annexin V and Propidium Iodide were used as a joint indicator for cell death. The data were acquired with BD FACSCalibur based on an acquisition of 3,000-5,000 cells and analyzed with the Cell Quest software. The combined percentages of the Annexin V+/PI+, Annexin V+/PI− and Annexin V−/PI+populations were considered as dead cells.

[2] = system: Gastric cancer NCI-N87 cells; test: Antibody cytotoxicity assay (Annexin V + PI), NCI-N87; assay type: cell-based; conditions: 1, 3 and 10 μg/ml, overnight
Protocol: as §1

[3] = system: Prostate cancer LNCaP cells; test: Antibody cytotoxicity assay (Annexin V + PI), LNCaP; assay type: cell-based; conditions: 1, 3 and 10 μg/ml, overnight
Protocol: as §1

[4] = system: CHO parental cells; test: FACS binding of anti-EpCAM antibodies to CHO parental cells; set-up: species or system Chinese hamster; conditions: antibody 0.1 μg/ml; HPS at 300x dilution
Protocol: 1×10^5 CHO/EpCAM or CHO parental cells were seeded in each well of a v-bottomed 96-well plate and incubated with purified anti-EpCAM antibodies or mouse IgG control antibody 9E10 at concentration of 0.1 μg/ml. A 300× dilution of human cell hyper-immune serum (HPS 300×) was used as binding positive control for both cell lines here. After 1 hr incubation at 4° C., cells were washed twice with 200 μl FACS buffer (1×PBS containing 1% FBS), stained with 100 μl of 1 μg/ml goat-anti-mouse IgG-PE (Southern Biotech, Cat. No. 1032-09) in FACS buffer and then incubated at 4° C. for 30 min. Cells were washed thrice with FACS buffer and analyzed by flow cytometry (BD LSR, BD Life Sciences).

[5] = system: DLD-1 xenograft; test: Colorectal cancer DLD-1 xenograft in SCID mice; assay type: in vivo; conditions: for tumor volume Mean ± SD: 12.5 mg/kg i.p.
Protocol: (§2) Whether the in vitro apoptosis-inducing activity of anti-EpCAM antibodies has any in vivo biological relevance was studied in the xenograft model. […] 5×10^6 DLD-1 or 3×10^6 NCI-H358 cells were implanted subcutaneously into the hind flank region of SCID mice (6-7 weeks) on day 0. Treatment by intraperitoneal injection with antibodies at 12.5 mg/kg for DLD-1 or 30 mg/kg for NCI-H358 in 0.1 ml PBS started on day 1 after tumor-cell inoculation and was repeated at days 4, 8, 11, 15, 18, 22 and 25. As control, 9E10 (an mouse anti-myc antibody) at the same dose were used. Five or six mice were used in each group of the experiment. Tumor growth was assessed based on twice-weekly measurement of tumor volume (mm^3) by calipers and the tumor size was calculated using the formula: π/6×larger diameter×(smaller diameter)^2 (Kievit E, Cancer Research, 60:6649-55). Statistical analysis of tumor growth was performed using the Student's t-test.

[6] = system: Lung cancer NCI-H520 cells; test: Antibody cytotoxicity assay (Annexin V + PI), NCI-H520; assay type: cell-based; conditions: 1, 3 and 10 μg/ml, overnight
Protocol: as §1

[7] = system: Breast cancer T-47D cells; test: Antibody cytotoxicity assay (Annexin V + PI), T-47D; assay type: cell-based; conditions: 1, 3 and 10 μg/ml, overnight
Protocol: as §1

[8] = system: Colorectal cancer DLD-1 cells; test: Antibody cytotoxicity assay (Annexin V + PI), DLD-1; assay type: cell-based; conditions: 1, 3 and 10 μg/ml, overnight
Protocol: as §1

[9] = system: NCI-H358 xenograft; test: Lung cancer NCI-H358 xenograft in SCID mice; assay type: in vivo; conditions: for tumor volume Mean ± SD: 30 mg/kg i.p.
Protocol: as §2

[10] = system: NCI-H358 lung cancer cells; test: Cell death in NCI-H358 lung cancer cells (Annexin V + PI); assay type: cell-based, human; conditions: mean of 5 experiments; mAb 10 μg/ml; 17 hr
Protocol: (§3) 5×10^4 NCI-H358 cells were seeded to each well of a 96-well plate, and then 10 μg/ml of anti-EpCAM or control (9E10) mAbs diluted in the medium was added into the cells. After a 17-hr incubation at 37° C., the cells were stained with 0.3 μl of FITC-conjugated Annexin V (Strong Biotech Corp. Cat. No. AVK250) in 50 μl Annexin V binding buffer (Strong Biotech Corp. Cat. No. AVK250) at RT for 20 min. After wash, the cells were then stained with 0.3 μl of propidium iodide in 200 μl Annexin V binding buffer. Annexin V and Propidium Iodide were used as a joint indicator for measuring cell death. The data were acquired with BD FACSCalibur based on an acquisition of 3,000-5,000 cells and analyzed with the Cell Quest software. The combined percentages of the Annexin V+/PI+, Annexin V+/PI− and Annexin V−/PI+populations were considered as dead cells.

[11] = system: COLO 205 colon cancer cells; test: Cytotoxicity of anti-EpCAM antibodies in combination with oxaliplatin in COLO 205; assay type: cell-based, human; conditions: 24 hr
Protocol: as §3, with “Oxaliplatin, combined with infusional administration of 2 other chemotherapy drugs, 5-fluorouracil/leucovorin (5-FU/LV), is now considered as one of the as first-line treatments for people with advanced carcinoma of the colon or rectum (André et al. (2004) N Engl J Med 350(23):2343-2351). To test the cytotoxicity of anti-EpCAM antibodies in the presence of oxaliplatin, 1×10^5 COLO 205 cells” for “5×10^4 NCI-H358 cells”, “then 0.03, 0.3 and 3” for “then 10”, “mAbs in combination with oxaliplatin at concentration of 0, 0.01, 0.1, and 1 μg/ml” for “mAbs”, “medium were” for “medium was”, “a 24-hr” for “a 17-hr”

[12] = system: Ovarian cancer NIH:OVCAR-3 cells; test: Antibody cytotoxicity assay (Annexin V + PI), NIH:OVCAR-3; assay type: cell-based; conditions: 1, 3 and 10 μg/ml, overnight
Protocol: as §1

B1: 12H8: murine anti-human EpCAM monoclonal antibody (IgG2a, K), hybridoma m342-12H8.3; VH SEQ ID NO:3, VL SEQ ID NO:5 (antibody, listed as Mus musculus, V domains shown)
VH: QIQLVQSGPELKKPGETVKISCKTSGYTFTDYSMHWVNQAPGKGLKWMGWINTETGEPTYTDDFKGRFAFSLETSASTAYLQINNLKNEDTATYFCARTAVYWGQGTTLTVSS
VL: DIQMTQSPSSLSASLGERVSLTCRASQEISGSLSWLQQKPDGTIKRLIYAASTLNSGVPKRFSGRRSGSDYSLTISSLESEDFVDYYCLQYSSYPWSFGGGTKLEIKR
- Induction of cell death (in words) [1]: substantial cell death
- Induction of cell death (in words) [2]: substantial cell death
- Induction of cell death (in words) [3]: substantial cell death
- Binding (FACS, Mean fluorescence intensity (MFI)) CHO [4]: 5
- Inhibition of tumor growth (in words) ([5]; colorectal (DLD-1) xenograft): efficiently inhibited
- tumor volume Mean ± SD ([5]; d29): 296 ± 154* mm^3
- tumor volume Mean ± SD ([5]; d32): 396 ± 156* mm^3
- tumor volume Mean ± SD ([5]; d36): 521 ± 189* mm^3
- tumor volume Mean ± SD ([5]; d39): 619 ± 232* mm^3
- tumor volume Mean ± SD ([5]; d43): 727 ± 270* mm^3
- tumor volume Mean ± SD ([5]; d46): 839 ± 292* mm^3
- tumor volume Mean ± SD ([5]; d49): 898 ± 207* mm^3
- Induction of cell death (in words) [6]: substantial cell death
- Induction of cell death (in words) [7]: substantial cell death
- Induction of cell death (in words) [8]: substantial cell death
- tumor volume Mean ± SD ([9]; d46): 325 ± 132* mm^3
- tumor volume Mean ± SD ([9]; d50): 475 ± 224* mm^3
- tumor volume Mean ± SD ([9]; d53): 597 ± 304* mm^3
- tumor volume Mean ± SD ([9]; d57): 656 ± 274* mm^3
- tumor volume Mean ± SD ([9]; d60): 680 ± 279* mm^3
- tumor volume Mean ± SD ([9]; d64): 859 ± 326* mm^3
- tumor volume Mean ± SD ([9]; d67): 1076 ± 464* mm^3
- Inhibition of tumor growth (in words) ([9]; lung (NCI-H358) xenograft): efficiently inhibited
- % of Annexin V + PI staining (untreated background subtracted), Mean ± SEM [10]: 33.6 ± 2.1%
- % of Annexin V + PI staining (untreated background subtracted) ([11]; mAb 0.03 μg/ml + oxaliplatin 0.01 μg/ml): 10%
- % of Annexin V + PI staining (untreated background subtracted) ([11]; mAb 0.03 μg/ml + oxaliplatin 0.1 μg/ml): 9%
- % of Annexin V + PI staining (untreated background subtracted) ([11]; mAb 0.03 μg/ml + oxaliplatin 1 μg/ml): 14%
- % of Annexin V + PI staining (untreated background subtracted) ([11]; mAb 0.03 μg/ml, oxaliplatin 0 μg/ml): 9%
- % of Annexin V + PI staining (untreated background subtracted) ([11]; mAb 0.3 μg/ml + oxaliplatin 1 μg/ml): 35%
- % of Annexin V + PI staining (untreated background subtracted) ([11]; mAb 0.3 μg/ml, oxaliplatin 0 μg/ml): 20%
- % of Annexin V + PI staining (untreated background subtracted) ([11]; mAb 3 μg/ml + oxaliplatin 0.01 μg/ml): 22%
- % of Annexin V + PI staining (untreated background subtracted) ([11]; mAb 3 μg/ml + oxaliplatin 0.1 μg/ml): 26%
- % of Annexin V + PI staining (untreated background subtracted) ([11]; mAb 3 μg/ml + oxaliplatin 1 μg/ml): 38%
- % of Annexin V + PI staining (untreated background subtracted) ([11]; mAb 3 μg/ml, oxaliplatin 0 μg/ml): 17%
- Induction of cell death (in words) [12]: substantial cell death
